PMC10962938 (Proceedings of the National Academy of Sciences of the …, 2024)
Where two headings read alike, the source gives them in different places.

B1: DnaJB11 (BiP co-chaperone, J-protein) (natural protein)
chain: GRDFYKILGVPRSASIKDIKKAYRKLALQLHPDRNPDDPQAQEKFQDLGAAYEVLSDSEKRKQYDTYGEEGLKDGHQSSHGDIFSHFFGDFGFMFGGTPRQQDRNIPRGSDIIVDLEVTLEEVYAGNFVEVVRNKPVARQAPGKRKCNCRQEMRTTQLGPGRFQMTQEVVCDECPNVKLVNEERTLEVEIEPGVRDGMEYPFIGEGEPHVDGEPGDLRFRIKVVKHPIFERRGDDLYTNVTISLVESLVGFEMDITHLDGHKVHISRDKITRPGAKLWKKGEGLPNFDNNNIKGSLIITFDVDFPKEQLTEEAREGIKQLLKQGSVQKVYNGLQGY

Experiments:
[1] = molecular target: Δ131Δ with a K16C mutation (model client); experiment: fluorescence polarisation
[2] = molecular target: Δ131Δ with a K16C mutation (model client); experiment: fluorescence polarisation; remark: listed apart in the source
[3] = molecular target: Grp94 full-length (FL) wild type (human, UniProt P14625 22-803, biotin label (Grp94 NH3-bio), in the streptavidin pull-down); experiment: pull-down
Sequence of Grp94 full-length (FL) wild type (human, UniProt P14625 22-803, biotin label (Grp94 NH3-bio), in the streptavidin pull-down) (P14625 22-803): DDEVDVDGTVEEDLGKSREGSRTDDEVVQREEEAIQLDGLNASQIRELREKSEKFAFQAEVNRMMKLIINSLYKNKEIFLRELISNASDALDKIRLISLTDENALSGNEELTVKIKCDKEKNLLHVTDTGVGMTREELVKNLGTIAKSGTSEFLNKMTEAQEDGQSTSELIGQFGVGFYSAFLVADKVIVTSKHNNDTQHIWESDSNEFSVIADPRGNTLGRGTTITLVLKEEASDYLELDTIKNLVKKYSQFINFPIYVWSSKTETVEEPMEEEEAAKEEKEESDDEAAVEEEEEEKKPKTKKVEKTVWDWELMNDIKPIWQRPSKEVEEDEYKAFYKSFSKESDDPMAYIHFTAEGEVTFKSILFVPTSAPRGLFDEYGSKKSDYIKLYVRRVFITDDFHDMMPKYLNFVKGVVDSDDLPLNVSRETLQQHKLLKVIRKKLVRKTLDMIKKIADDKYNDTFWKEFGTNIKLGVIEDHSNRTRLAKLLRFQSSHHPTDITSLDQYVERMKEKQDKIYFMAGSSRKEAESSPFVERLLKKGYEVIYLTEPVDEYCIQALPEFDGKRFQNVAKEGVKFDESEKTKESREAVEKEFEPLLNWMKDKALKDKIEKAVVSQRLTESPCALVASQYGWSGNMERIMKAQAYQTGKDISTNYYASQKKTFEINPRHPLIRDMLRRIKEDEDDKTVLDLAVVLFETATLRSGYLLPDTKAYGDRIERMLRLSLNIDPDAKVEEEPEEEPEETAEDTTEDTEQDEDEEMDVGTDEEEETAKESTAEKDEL

binding result [3]	Molecule	fold decrease of binding affinity against apo conditions [1]	Kd [2]	fold decrease of binding affinity against apo conditions [2]
	Grp94 full-length (FL) wild type (from UniProt P14625 22-803) (natural protein)	2 fold	7.2 µM	2 fold
	Grp94 Δ72 (pre-N domain truncation, aa 73-803) (from UniProt P14625 73-803) (domain or fragment)	6 fold		4 fold
binds	B1			
